Results taken from patent US20090291081A1 (published 2009).
Each block holds one binder with its values, some of them ahead of it.

Key:
human IL-1α = target: T1, human IL-1α (human, UniProt P01583 113-271); test: yeast surface display titration (FACS); unlabelled IL-1α
T1 chain: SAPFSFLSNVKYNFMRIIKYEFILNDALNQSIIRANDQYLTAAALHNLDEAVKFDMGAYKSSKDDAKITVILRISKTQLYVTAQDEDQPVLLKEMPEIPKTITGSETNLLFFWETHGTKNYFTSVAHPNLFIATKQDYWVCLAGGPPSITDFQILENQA

Bio-IL-1a = test: yeast surface display titration (FACS); biotinylated IL-1α

EC50 (human IL-1α): 664 pM
B1: ABT2-108-538x/ABT1-95-15 scFv on yeast surface (scFv, V domains shown)
VH: EVQLLESGGGLVQPGGSLRLSCAASGFTFADEGMMWVRQAPGKGLEWVSRITYSGKNTYYADSVKGRFTISRDNSKNTLYLQMNSLRAEDTAVYYCAKYTGRILGHHLFDYWGQGTLVTVSS
VL: DIQMTQSPSSLSASVGDRVTITCRASQPIVRNLRWYQQKPGKAPKLLIYSSSYLEPGVPSRFSGSGSGTDFTLTISSLQPEDFATYHCQQGYRWPVTFGQGTKVEIK

EC50 (Bio-IL-1a): 664 pM
B2: ABT2-108-538x/ABT1-95-15 scFv (scFv, V domains shown)
VH: B1 VH
VL: B1 VL
